Data: the nanobody polyreactivity screen of Harvey et al. (2022)

assay: yeast display, Sf9 membrane polyspecificity reagent, FACS + sequencing; frameworks hold sequencing errors
In short: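 Nanobodies came from a synthetic yeast display library in Saccharomyces cerevisiae BJ5465, induced with galactose for 36–48 hours and stained for 1 hour at 4 °C with 10% biotinylated, detergent-solubilized Sf9 membrane reagent. Cells were enriched on streptavidin microbeads and then FACS-sorted, with low and high (top ~1%) gates set on anti-HA fluorescence for expression and streptavidin fluorescence for reagent binding. Each polyreactivity label reflects the gate a clone came from. Genes were amplified by colony PCR, sequenced by MiSeq 2 × 250 and filtered by CDR length.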

Sequence	polyreactivity (PSR sort gate)
QVQLVESGGGLVQAGGSLRLSCAASGRTFYNNAMGWYRQAPGKERELVATINNRGGTTYYADSVKGRFTISRDNAKNTVYLQMNSLKPEDSAVYYCAKSAQRYSYRYYYWGQGTQVTVSS	high polyreactivity
QVQLVESGGGLVQAGGSLRLSCAASGSIFGFNAMGWYRQAPGKERELVAAINNGGSTNYADSVKGRFTISRDNAKNTVYLQMNSLKPEDTAVYYCAARLNYIRRGYWGQGTQVTVSS	high polyreactivity
QVQLVESGGGLVQAGGSLRLSCAASGIIFIAYAMGWYRQAPGKERELVADISIGGSTNYADSVKGRFTISRDNAKNTVYLQMNSQKPEDTAVYYCNAGGGFYGSTVEHDYWGQGTQVTVSS	low polyreactivity
QVQLVESGGGLVQAGGSLRLSCAASGSIFRTYAMGWYRQAPGKERELVATITFGGVSTYYADSVKGRFTISRDNAKITVYLQMNSLKPEDTAVYYCAADVYTRFWRVYRFDYWGQGTQVTVSS	low polyreactivity
QVQLVESGGGLVQAGGSLRLSCAASGYIFRYYAMGRYRQAPGKERELVAAITARAGRTYYADSVKGRFTISRDNAKNTVYLQMTSLKPEDTAVYYCAAVRTKVWRGPEMDYWGQGTQVNVSS	high polyreactivity
QFQLVESGGGLYQAGGSLRLSCASSGITLYFYAMGWYRQAPGKVRELVAAISRGGRTYYADSVKGRFTISRDNAKNTVYLQMNSLKPEDTAVYYCAARYTSEYSAFDYWGQGTQVTVSS	low polyreactivity
QVQLVESGGGLVQAGGSLRLSCAASGGTFWIYAMGWYRQAPGKERELVAGITTSGATTYYADSVKGRFTISRDNAKNTVYLQMNSLKPEDTAVYYCAAVIRPRYYQVRPRYDYWGQGTQVTVSS	low polyreactivity
QVQLVESGGGLVQAGGSLRLSCAASGRTFVPNAMGWYRQAPGKERELVAAISDSGGSTYYADSVKGRFTISRDNAKNTVYLQMNSLKPEDTAVYYCATDVTTYVGWEHGFNYWGQGTQVTVSS	low polyreactivity
QVQLVESGGGLVQAGGSLGLSCAASGRTFAKYAMGWYRQAPGKERELVAAITRGDTTNYADSVKGRFTISRDNAKNTGYLQMHRLKPEDTAVYYCAATPDPPHTYEYWGQVTQVTVSS	low polyreactivity
QVQLQESGGGLVQAGGSLRLSCAASGYNSFSGYMGRYRQAPGKEREFVDSITPGRSTYYADSVKGRFTISRDNAEITVYLQMNSLKPEDTGVYYCAADDSRTEQHDYWGQGTQVTVSS	high polyreactivity
QVQLVESGGGLVQAGGSLRLSCAASGSIFTGYSMGWYRQAPGKERELVAAISNSGTSTYYADSVKGRFTISRDNAKNTVYLQMNCLKPDDTAVYYCNRYHRLRVVPSRYVKYDYWGQGTQVTVSS	low polyreactivity
QVQLVESGGGLVQAGGSLRLSCAASGFIFHRYVMGWSRQAPGKERELVAAISSGGSTNYADSVKGRFTISRDNAKNTVYLQMNSLKPEDTAVYYCAADGFYYRNWGRFRYYYWGQGTQVTVSS	low polyreactivity
QVQLVESGGGLVQAGGSLRLSCAASGFIFTWYAMGWYRQAPGKEREFVAGISRSGGRTYYADSVKGRFTISRDNAKNTVYLHVNSLKPEVTAVFYCGAKYYIGFWLRDYYYWGQCTQVTVSS	high polyreactivity
QVQLVESGGGLVQAGGSLRLSCAASGRTLPFNAMGWYRQAPGKERELVAAITRGGSTNYADSVKGRFTISRDNAKNTVYLQMNSLKPEDTAVYYCAARRYAWYGYRAYDYWGQGTQVTVSS	high polyreactivity
QVQLVESGGGLVQAGGSLRLSCAASGSIFPYNAMGWYRQAPGKERELVAAISKRGGSTYYADSVKGRFTISRDNAKNTVYLQMNSLKPEDTAVYYCAARYPPYRSWYSYDYWGQGTQVTVSS	low polyreactivity
QVQLVESGGGLVQAGGSLRLSCAASGSIFVTYAMGGYRQAPGKERELVAAISTSGGSTYADSVKGRFTISRDNAKNTVYLQMNSLKPEDTAVYYCNADDPGYAVPWYWFKFDYWGQGTQVTVSS	low polyreactivity
LVHHVESGGGLVQAGRSLRLTCAASGGTFFSNAMGWYRQSPGKERELVAGITSGGRTYYADAVKGRFTISRDNAMNTVYLQMNSMKPEDTAVFYCAAERFTRKYNYWGQGTQVTLSS	high polyreactivity
QVQLVESGGGLVQAGGSLRLSCAASGRTFYYYAMGWYRQAPGKERELVAAINWSSGSTYYADSVKGRFTISRDNAKNTVYLQMNSLKPEDTAVYYCNAESRWYIIPYGDFDYWGQGTQVTVSS	low polyreactivity
QVQLVESGGGIVQAGGSLRLSCAASGGTCWFYDMGWYRQAPGKERELVAAINSDGSTYYADSVKGRFTISRDNAMNTVYLQMNSLQPEDTAVYYCAADISLHWYYYRRYNYWGQGTQGTVSS	low polyreactivity
QVQLVESGGGLVQAGGSLRLSCAASGRIFLSNALGWYRQAPGKERELVAAINSGGNTDYADSVKGRFTISRDNAKNTVYLQMNSLKPEDTAVYYCAADAFSWDHDYWGQGTQVTVSS	low polyreactivity
QVQLVESGGGLVQAGGSLRLSCAASGSIFAYYAMGWYRQAPGKERELVAAIDSRGGSTYYADSVKGRFTISRDNAKNTVYLQMNSLKPEDTAVYYCAARLRYPRRGQGDNYWGQGTQVTVSS	low polyreactivity

Sequence	polyreactivity (PSR sort gate)
QVQLVESGGGLVQAGGSLRLSCAASGSIYYYYAMGWYRQAPGKERELVAAIRRRGGTTYYADSVKGRFTISRDNAKNTVSLQMISLKPEDTAVYYCAARSKSAYWGQGTQVTVSS	high polyreactivity
QVQLVESGGGIVQAGGSLRLSCAASGSIFKRYAMGWYRQAPGKERELVAAISWSGGNTYYADSVKGRFTISRDNAKYTVYLQMNILKPEDTAVYYCNAGYSYFGPGRGRFRYYYWGQGTQVTVSS	high polyreactivity
QVQLVESGGGLVQAGGSLRLSCAASGFTFNRYTMGWYRQAPGKERELVASISVRGSRTYYADSVKGRFTISRDNAKNTVYLQMNSLKPEDTAVYYCNAKTYVFYRLRSYYYWGQGTQVTVSS	high polyreactivity
QVQLVESGGGLVQAGGSLRLSCAAYGSTFRYYAMGWYRQAPGKERELVAAITSSGGSTYYADSVKGRFTISRDNAKNTVFLQMNSLKPEDTAVYYCAVAVKNWVKLNYWGQGSQVTVSS	high polyreactivity
QVQLVESGGGLVQAGGSLRLSCAASGRTFFVYAMGWYRQAPGKERELVAAISRGGRTYYADSVKGRFTISRDNAKNTVYLQMNSLKPEDTAVYYCAAESWYQQGDYWGQGTQVTVSS	low polyreactivity
QVQLVESGGGLVQAGGSLRLSCAASGSTFWVNAMGWYRQAPGKERELVAAITVRGTSTYYADSVKGRFTISRDNAKNTVYLQMNSLKPEDTAVYYCAADTPSNSHDYWGQGTQVTVSS	low polyreactivity
QVQLVESGGGLVQAGGSLRLSCAASGSTFFYYAMGWYRQAPGKERELVATIRGSAGRTYYADSVKGRFTISRDNAKNTVYLQMNSLKPEDTAVYYCARRYWPGSAYWIYDYWGQGTQVTVSS	high polyreactivity
QVQLVESGGGLVQAGGSLRLSCAASGIIFDYYDMGWYRQAPGKERELVAAISDDGGSTYYADSVKGRFTISRDNAKNTVYLQMNSLKPEDTAVYYCAADSYYAYPYGYGYWGQGTQVTVSS	high polyreactivity
QVQLVESGGCLVQAGGSLRLSCAASGFTFLDYVMGWYRPAPGKERELVAVITVSGGSTYYADSVKGRFTISRDNAKNTVYLQMTSLKPEDTAVYYCNAYTIEYPFGDSYWYNYDYWGQGTQVTVSS	high polyreactivity
QVQLLESGGGLVQAGGSLRLSCAASGSIFEGNGMGWYRQAPGKERELVAAITFRSGSTYYADSVKGRFTISRDNAKNTVYLQMNSLKPEDTAVYYCAADEYYEVSAYDYWGQGTQVTVSS	low polyreactivity
QVQLVESGGGLVQAGVSLRLSCAASGSTFDTYAMGWYRQAPGKERELVAAISGSGVRTYYADSVKGRFTISRDNAKYTVYLQMNSLKPEDTAVYYCATTGYARRFDYWGQGSQVTVSS	high polyreactivity
QVQLVESGGGLVQAGGSLRISCAASGLTILFYAMAWYRQAPGKERELVASIRWSDGRTYYADSVKGRFTISRDNAKNTVYLQMNSLKPEDTAVYYCAARSYLTPEYYYWGQGTQVTVSS	high polyreactivity
QVQLVESGGGLVQAGGSLRLSCAASGRTLVLNMGWYRQAPGKQRELVATINSGGSTYYADSVKGRFTISRANAKNTVYLQMNSLKPEDSAVYYCAVLSSDGKFDYWGQGSQVTVSS	low polyreactivity
QVKLVESGGGLVQAGGSLRLSCAASGSIFALYAMGWYRQAPGKEREFVARISWGGGRTYYADSVKGRFTISRDNAQNTVYLQMNSLKPEDTAVYYCNAERAGTYSYDYWGQGTQVTVSS	high polyreactivity
QVQLVESGGGLVQAGGSLRLSCAASGRTSTGYAMGWYRPAPGKERELVAGIDKIGGRTYYADSVKGRFTISRDNEKNTVYLQMNSLKPEDTAVYYCNRVPRRSIRYDYWGQGTKVTVSS	high polyreactivity
QVQLVESGGGLVQAGGSLRLSCAASGSNYRNAMGWYRQAPGKERELVAAISSSGGRTYYADSVKGRFTISRDNAKNTVYLKMNSLKPEDTAVYYCAKVGPYWSRGKYWGQGTQVTVSS	high polyreactivity
QVQLVESGGGLVQAGGSLRLSCAASGRISVVNARGWYRQAPGKERELVAAIRRASTNYADSVKGRFTISRDIAKNTVYLQMNILKPEDTAVYYCAARVYGINIFEYWGQGTQVTVSS	high polyreactivity
QVQLVESGGGLVQAGGSLRLSCAASGSTFRGYTMGWYRQAPGKEREFVATISSRGGSTNYADSVKGRFTISRDNAKNTVYLQMNSMKPEDTAVYYCNVRRVWWEWPRGDSWGQGTQVTVSS	high polyreactivity
QVHLVESGGGLVQAGGSLRLSCAASGSTFYRYAMGWYSQAPGKERELVAAISKRGGSTYYADSVKGRFTISRDNAKNTVYLQMNSLKPEDTAGQYCAADPFDYGGGDDYWGQGTQVTVSS	high polyreactivity
QVQLVESGGGLVQAGGSLRLSCAASGFIFADYAMGWYRQAPGKERELVAAITGRGTSTYYEDSVKGRFTISRDNAKNTVYLQMNSLKPEDTAVYLCAAAGTYYRHYKGYYRHLDYWGQGTQVTVSS	high polyreactivity
